Data on 3 molecules can be found in US20110008323A1.

Where only a bound is given, the exact number is not on record here.

Assay [1] addresses T1, human Cadherin-11 expressed on 431-D-11 cells (human) (UniProt P55287).
T1 sequence: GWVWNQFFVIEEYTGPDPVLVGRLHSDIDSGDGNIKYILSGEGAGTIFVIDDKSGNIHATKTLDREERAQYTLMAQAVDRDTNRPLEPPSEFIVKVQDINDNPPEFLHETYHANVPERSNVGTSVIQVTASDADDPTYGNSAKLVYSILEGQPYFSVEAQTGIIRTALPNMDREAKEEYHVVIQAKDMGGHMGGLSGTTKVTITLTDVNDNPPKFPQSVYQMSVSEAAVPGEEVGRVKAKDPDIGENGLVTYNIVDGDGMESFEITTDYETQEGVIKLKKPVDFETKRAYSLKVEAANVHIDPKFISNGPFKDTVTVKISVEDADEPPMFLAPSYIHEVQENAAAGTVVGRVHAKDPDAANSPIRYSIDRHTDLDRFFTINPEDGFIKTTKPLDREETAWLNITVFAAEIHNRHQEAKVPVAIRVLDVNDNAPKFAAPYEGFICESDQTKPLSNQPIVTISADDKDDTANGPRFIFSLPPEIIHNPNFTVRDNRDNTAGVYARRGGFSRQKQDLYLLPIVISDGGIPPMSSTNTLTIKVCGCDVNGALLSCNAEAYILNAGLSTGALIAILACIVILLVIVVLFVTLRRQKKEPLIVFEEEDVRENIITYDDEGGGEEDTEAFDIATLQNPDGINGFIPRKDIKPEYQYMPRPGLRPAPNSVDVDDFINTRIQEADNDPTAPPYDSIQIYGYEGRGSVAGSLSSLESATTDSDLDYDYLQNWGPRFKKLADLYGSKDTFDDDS
As to the kind of experiment: cell-based or functional assay.

Assay [2] deals with T1, human Cadherin-11 expressed on 431-D-11 cells (human). As to the kind of experiment: cell-based or functional assay. The source holds these as a separate data set.
The target of assay [3] is T2, Cad-11 EC1 domain peptide (first 33 amino acids of the EC1 domain), specificity ELISA of Example 5 (human).
T2 sequence (peptide): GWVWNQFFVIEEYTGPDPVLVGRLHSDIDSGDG
As to the kind of experiment: ELISA on EC1 domain peptides (first 33 amino acids).

Assay [4] addresses T3, Cad-8 EC1 domain peptide (region overlapping the G1-G33 region of the Cad-11 EC1 domain) (UniProt P55286).
T3 sequence (peptide, conjugated to biotin, looked up): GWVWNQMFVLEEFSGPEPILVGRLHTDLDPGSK
As to the kind of experiment: ELISA on EC1 domain peptides, against the Cad-11 peptide.

Consider “human Cad-11-EC1-5-Fc fusion protein (from UniProt P55287 54-609)”, for which the inhibition of Cad-11 mediated cell aggregation in assay [1] was 100 µg/mL.
As for “human Cad-11-EC1-hIgG2-Fc1 fusion protein (Fc fusion)”, in assay [1], the inhibition of Cad-11 mediated cell aggregation amounted to 3 µg/mL and the inhibition of aggregation of Cad-11 expressing 431-D-11 cells at 40 min worked out at 3 µg/mL.

B1: H1M1 anti-Cad-11 antibody (produced by hybridoma H1M1, ATCC accession number PTA-9699) (antibody, from a related filing, V domains shown)
VH: EVQLQQSGPELVKPGASVKISCKASGYSFTGYFMNWVKQSHGKSLEWIGRINPYTGDTFYNQKFKGKATLTVDKSSSTAHMELLSLSSEDSAVYYCGRLGSRYWYFDVWGAGTTVTVSS
VL: DVLMTQTPLSLPVSLGDQASISCRSSQSIIHSNGNTYLEWYLQKPGQSPKLLIYKVSNRFSGVPDRFTGSGSGTDFTLKISRVEAEDLGVYYCFQGSHVPWTFGGGTKLEIK
Take B1: in assay [2], the inhibition of aggregation of Cad-11-expressing A-431-D cells (photographs, overnight culture) turned out to be 30 µg/mL. This molecule showed a fold higher binding to Cad-11 than to any of the other cadherins tested in assay [3] of over 100 fold. This molecule also yielded a fold lower binding than to Cad-11 in assay [4] of 365 fold.
